Key:
[1] = target: T1, [2Fe-2S]-IscR (wild type, anaerobically isolated) (Escherichia coli K12, UniProt P0AGK8 1-162); experiment: fluorescence anisotropy; [2Fe-2S]1+ cluster, anaerobic, no PMS; apparent Kd; Anisotropy: 40 mM Tris-Cl pH 7.9, 30 mM KCl, 5% glycerol, anaerobic unless stated, temperature not stated for the binding step; EMSA: 40 mM Tris-Cl pH 7.9, 150; details: protein: recombinant; chain copies: 2; label: 5' Texas Red on strand 1; blunt
T1 sequence: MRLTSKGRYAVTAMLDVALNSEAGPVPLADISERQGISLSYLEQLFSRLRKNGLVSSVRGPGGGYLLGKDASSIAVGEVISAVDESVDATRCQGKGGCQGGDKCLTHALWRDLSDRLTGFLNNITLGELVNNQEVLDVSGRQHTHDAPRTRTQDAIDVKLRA

[2] = target: T1, [2Fe-2S]-IscR (wild type, anaerobically …); experiment: fluorescence anisotropy; air 15 min, then returned to anaerobic chamber and assayed anaerobically; Anisotropy: 40 mM Tris-Cl pH 7.9, 30 mM KCl, 5% glycerol, anaerobic unless stated, temperature not stated for the binding step; EMSA: 40 mM Tris-Cl pH 7.9, 150; details: protein: recombinant; chain copies: 2; label: 5' Texas Red on strand 1; blunt

B1: iscRB type 1 site 30 bp (dsDNA)
DNA 1: AAATAGTTGACCATTTTACTCGGGAATGTC
DNA 2: GACATTCCCGAGTAAAATGGTCAACTATTT
- Kd [1]: 0.022 µM
- Kd [2]: 0.026 µM
